{"source": "paper PMC10624354", "binders": {"B1": {"name": "YUC8pro (WT) (dsDNA)", "DNA 1": "TCTTTTTCTTCCCCACGTGGCTTCCTCTCGTTGGTCCCACAA", "DNA 2": "TTGTGGGACCAACGAGAGGAAGCCACGTGGGGAAGAAAAAGA"}}, "target": "T1, PIF4 (Arabidopsis thaliana, UniProt Q8W2F3 1-430)", "T1 sequence": "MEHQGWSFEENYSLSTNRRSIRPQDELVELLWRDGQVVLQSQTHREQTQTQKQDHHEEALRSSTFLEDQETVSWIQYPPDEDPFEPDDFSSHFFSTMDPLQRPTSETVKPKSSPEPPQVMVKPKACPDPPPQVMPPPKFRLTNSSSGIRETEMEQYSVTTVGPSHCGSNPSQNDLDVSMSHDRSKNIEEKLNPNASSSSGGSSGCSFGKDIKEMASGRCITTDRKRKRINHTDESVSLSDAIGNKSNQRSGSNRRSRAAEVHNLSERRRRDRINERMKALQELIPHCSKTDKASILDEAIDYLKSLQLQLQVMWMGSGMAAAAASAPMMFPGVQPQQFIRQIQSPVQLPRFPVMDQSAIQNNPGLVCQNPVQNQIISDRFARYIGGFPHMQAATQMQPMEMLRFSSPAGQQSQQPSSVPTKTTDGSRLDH", "experiment": "EMSA"}
{"binder": "B1", "values": [{"measurement": "binding result", "result": "binds"}]}
